Assay results published in PMC10712694 (International Journal of Molecular Medicine, 2023).

What was measured:
[1] = molecular target: T1, LGR4 extracellular (ligand-binding) domain, L62 to V464, His-tagged (UniProt A2ARI4 62-464); assay: MST
T1 sequence (looked up): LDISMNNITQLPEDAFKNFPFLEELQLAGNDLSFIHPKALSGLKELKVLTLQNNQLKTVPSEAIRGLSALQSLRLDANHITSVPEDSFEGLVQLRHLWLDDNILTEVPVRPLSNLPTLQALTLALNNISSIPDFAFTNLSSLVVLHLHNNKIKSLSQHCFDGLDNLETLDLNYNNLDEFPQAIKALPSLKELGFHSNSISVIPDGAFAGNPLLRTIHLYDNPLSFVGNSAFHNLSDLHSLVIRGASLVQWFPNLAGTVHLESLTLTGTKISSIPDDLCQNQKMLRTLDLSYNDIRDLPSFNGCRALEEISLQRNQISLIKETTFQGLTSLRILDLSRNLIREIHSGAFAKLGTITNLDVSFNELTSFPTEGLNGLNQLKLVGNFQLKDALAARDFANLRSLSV

[2] = molecular target: T2, RANK extracellular (ligand-binding) domain, Q30 to P213, His-tagged (UniProt O35305 30-213); assay: MST
T2 sequence (looked up): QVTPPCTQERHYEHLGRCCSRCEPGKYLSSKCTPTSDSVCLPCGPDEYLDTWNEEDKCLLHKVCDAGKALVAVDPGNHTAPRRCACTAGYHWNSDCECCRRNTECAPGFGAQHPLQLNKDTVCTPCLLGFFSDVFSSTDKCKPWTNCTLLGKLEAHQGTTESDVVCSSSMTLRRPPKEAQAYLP

Kd [1]: 409 nM
Kd [2]: 33.3 nM
B1: wild-type RANKL (receptor activator of nuclear factor-κB ligand) (ligand, UniProt O35235 139-316, looked up)
chain: FSGAPAMMEGSWLDVAQRGKPEAQPFAHLTINAASIPSGSHKVTLSSWYHDRGWAKISNMTLSNGKLRVNQDGFYYLYANICFRHHETSGSVPTDYLQLMVYVVKTSIKIPSSHNLMKGGSTKNWSGNSEFHFYSINVGGFFKLRAGEEISIQVSNPSLLDPDQDATYFGAFKVQDID
